The values below come from patent US20030044958A1 (ICOS, published 2003).

In one test the target is ICAM-1/Fc (UniProt P05362). Description: cell-based or functional assay.
Another test has as its target VCAM-1/Fc (UniProt P19320). Nature of the test: cell-based or functional assay.
Test [1] concerns the target T1, His3E9-tagged β2 integrin cytoplasmic tail protein (UniProt P05107 724-769, not fully specified).
T1 construct: domain: cytoplasmic tail; Expressed in E. coli (pET15b) or Saccharomyces; immobilized on Scintistrip plates; also called β2 C-tail; β2 integrin C-tail; not shown: His3E9 tag
T1 chain (looked up): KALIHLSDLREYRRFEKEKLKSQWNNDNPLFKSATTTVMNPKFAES
Description: competition binding assay, competitor at 0.001 to 4 µM against iodinated IRP-1 on immobilized β2 C-tail. The protocol: (§1) The integrin C-tails were immobilized onto 96-well microtiter Scintistrip™ (Wallac) plates at concentrations between […] in volumes of 50-100 μl bicarbonate, pH 9.6, per well and were incubated at 4° C. overnight. Plates were dried and blocked in 350 μl/well sterile-filtered 1-2% Bovine Serum Albumin (BSA) dissolved in binding assay buffer and were incubated at room temperature for 1-2 hours. The wells were washed 3 times in binding assay buffer and dried just prior to addition of IRPs.
The binding assay format was either a competition/inhibition binding assay or a saturation binding assay. In the competition binding assay, radiolabeled IRPs were diluted to 25-100 nM in binding assay buffer with one potential modulator of binding (unlabelled IRPs, soluble C-tails or non-specific control polypeptides such as BSA). The assay was initiated with addition of 100 μl labeled IRPs/potential modulator solution to the blocked Scintistrip® wells (50,000-200,000 cpm/well), then incubated one hour at room temperature (22-24° C.) and stopped by rapidly washing in binding assay buffer three to five times. The saturation binding assays were performed similarly, except that a constant 1:20 ratio of radiolabeled:unlabeled IRPs were tested over a total concentration range of 0.01-30 μM. The plates were dried and scintillation was measured on a Wallac Model 1450 liquid scintillation counter after the detectors were normalized. Interwell crosstalk was corrected for with a test Scintistrip™ plate, containing in the G11, 100 μl of 25-100 nM radiolabeled IRP captured by anti-IRP monoclonal antibody 200A coated in the well at 20 μg/ml in bicarbonate buffer. The incubation times and conditions for the test plate were identical to the binding assay above.

Test [2] concerns the target T2, Bovine Serum Albumin (BSA) (bovine, UniProt P02769 25-607).
T2 construct: also called control peptide
Description: radiolabelled IRP-1 on BSA-blocked Scintistrip wells. Here is the method: as §1
The binding assay format was either a competition/inhibition binding assay or a saturation binding assay. In the competition binding assay, radiolabeled IRPs were diluted to 25-100 nM in binding assay buffer with one potential modulator of binding (unlabelled IRPs, soluble C-tails or non-specific control polypeptides such as BSA). […] The plates were dried and scintillation was measured on a Wallac Model 1450 liquid scintillation counter after the detectors were normalized. […]
Binding was measured as counts of radiolabeled IRPs found in C-tail-coated wells above counts found in BSA-coated wells. Specific binding was assessed as counts found in C-tail-coated wells which were reduced with added unlabelled IRPs or soluble C-tails.

Sequence of ICAM-1/Fc (P05362 28-480 limits assumed): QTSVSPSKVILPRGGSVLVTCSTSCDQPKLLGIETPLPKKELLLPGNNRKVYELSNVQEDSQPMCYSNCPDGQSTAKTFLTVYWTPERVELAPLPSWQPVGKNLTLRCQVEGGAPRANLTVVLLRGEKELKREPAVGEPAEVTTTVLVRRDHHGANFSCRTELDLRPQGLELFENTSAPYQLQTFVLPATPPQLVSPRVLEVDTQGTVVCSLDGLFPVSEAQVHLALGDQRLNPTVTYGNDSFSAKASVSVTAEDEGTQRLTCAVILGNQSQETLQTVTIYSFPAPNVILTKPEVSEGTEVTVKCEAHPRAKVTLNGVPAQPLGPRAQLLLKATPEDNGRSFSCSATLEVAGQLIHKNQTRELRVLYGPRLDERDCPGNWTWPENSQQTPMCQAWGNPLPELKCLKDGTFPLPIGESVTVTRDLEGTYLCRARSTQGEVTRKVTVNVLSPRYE
Sequence of VCAM-1/Fc (P19320 25-698 limits assumed): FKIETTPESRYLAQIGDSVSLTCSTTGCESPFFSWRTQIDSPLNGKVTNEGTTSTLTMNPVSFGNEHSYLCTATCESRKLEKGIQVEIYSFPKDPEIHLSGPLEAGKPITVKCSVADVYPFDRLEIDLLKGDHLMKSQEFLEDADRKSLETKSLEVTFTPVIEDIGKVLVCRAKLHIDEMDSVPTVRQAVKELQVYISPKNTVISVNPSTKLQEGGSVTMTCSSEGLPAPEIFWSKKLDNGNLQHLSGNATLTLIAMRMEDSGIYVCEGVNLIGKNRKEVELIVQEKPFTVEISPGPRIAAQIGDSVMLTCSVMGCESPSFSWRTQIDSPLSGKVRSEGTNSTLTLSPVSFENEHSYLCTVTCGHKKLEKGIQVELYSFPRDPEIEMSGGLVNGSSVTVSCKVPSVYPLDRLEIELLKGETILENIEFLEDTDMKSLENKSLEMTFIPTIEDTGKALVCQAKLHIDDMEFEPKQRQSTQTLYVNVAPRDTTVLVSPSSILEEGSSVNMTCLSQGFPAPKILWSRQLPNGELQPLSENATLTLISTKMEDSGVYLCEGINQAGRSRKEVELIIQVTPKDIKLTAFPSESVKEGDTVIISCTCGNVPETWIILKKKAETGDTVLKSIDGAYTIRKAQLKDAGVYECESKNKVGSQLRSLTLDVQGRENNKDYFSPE
T2 sequence (P02769 25-607 limits assumed): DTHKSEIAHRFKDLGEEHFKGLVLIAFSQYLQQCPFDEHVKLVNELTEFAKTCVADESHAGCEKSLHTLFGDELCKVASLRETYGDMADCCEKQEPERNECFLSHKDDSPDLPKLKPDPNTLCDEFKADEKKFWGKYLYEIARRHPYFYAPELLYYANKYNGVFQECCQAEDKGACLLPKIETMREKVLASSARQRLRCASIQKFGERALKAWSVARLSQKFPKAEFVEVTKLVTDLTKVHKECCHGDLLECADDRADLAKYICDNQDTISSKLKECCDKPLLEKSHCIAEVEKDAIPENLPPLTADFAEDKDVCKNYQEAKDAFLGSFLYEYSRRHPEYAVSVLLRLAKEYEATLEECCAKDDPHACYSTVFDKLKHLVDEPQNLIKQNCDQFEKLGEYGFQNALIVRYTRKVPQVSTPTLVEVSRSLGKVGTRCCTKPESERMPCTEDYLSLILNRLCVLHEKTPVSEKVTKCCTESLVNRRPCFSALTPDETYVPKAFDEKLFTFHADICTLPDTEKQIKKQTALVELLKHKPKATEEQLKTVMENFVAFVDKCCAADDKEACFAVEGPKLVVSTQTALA

Turning to “LFA-1 (CD11a/CD18) on JY, JY-8 or transfected COS cells (from UniProt P20701 26-1170; P05107 23-769) (receptor)”, in the test with ICAM-1/Fc, the decrease in ICAM-1 adhesion of COS cells co-transfected with CD11a/CD18 and 3′HA B2-1, 5′HA B2-1, B2-1 PH or IRP-1 PH, 72 hours post-transfection, against vector control came out at 50%; the decrease in static adhesion to ICAM-1 of JY-8 transfectants overexpressing IRP-1 against GFP control (basal and IL-8 stimulated) was 40 to 50%; the highest flow rate at which ICAM-1 binding of JYIRP-2 cells was detected after static binding was < 7.5 dynes/cm^2; the static adhesion of JY-8 cells expressing only GFP (control) to immobilized ICAM-1, IL-8 against basal level lay within 3 to 4 fold. Also, in the test with ICAM-1/Fc, the static adhesion of JY-8 cells to ICAM-1, PMA against basal level is > 4 fold and the static adhesion to ICAM-1 (basal or IL-8 induced) of JY-8 transfectants overexpressing IRP-2 against GFP transfectants amounted to 20%.
For the molecule “integrin α4β7 on JY or JY-8 cells (from UniProt P13612 34-1032; P26010 20-798) (receptor)”, in the test with VCAM-1/Fc, the IL-8 stimulated adhesion to VCAM-1 of JY-8 transfectants overexpressing B2-1 came to 50%; the static adhesion of JY-8 cells expressing only GFP (control) to immobilized VCAM-1, IL-8 against basal level turned out to be 2 fold; the static adhesion of JY-8 cells to VCAM-1, PMA against basal level is > 4 fold; the static adhesion to VCAM-1 (IL-8 induced) of JY-8 transfectants overexpressing IRP-2 against GFP transfectants was 20%. Besides, the static adhesion to VCAM-1 of JY-8 transfectants overexpressing IRP-1, IL-8 stimulated in the test with VCAM-1/Fc is 40%.

B1: His-tagged IRP-1 (HisIRP-1), expressed in E. coli (other)
chain: MEDGVYEPPDLTPEERMELENIRRRKQELLVEIQRLREELSEAMSEVEGLEANEGSKTLQRNRKMAMGRKKFNMDPKKGIQFLVENELLQNTPEEIARFLYKGEGLNKTAIGDYLGEREELNLAVLHAFVDLHEFTDLNLVQALRQFLWSFRLPGEAQKIDRMMEAFAQRYCLCNPGVFQSTDTCYVLSFAVIMLNTSLHNPNVRDKPGLERFVAMNRGINEGGDLPEELLRNLYDSIRNEPFKIPEDDGNDLTHTFFNPDREGWLLKLGGRVKTWKRRWFILTDNCLYYFEYTTDKEPRGIIPLENLSIREVDDPRKPNCFELYIPNNKGQLIKACKTEADGRVVEGNHMVYRISAPTQEEKDEWIKSIQAAVSVDPFYEMLAARKKRISVKKKQEQP
notes: also called unlabelled IRP-1; clone S3 protein; not shown: N-terminal histidine tag encoded by pET15b
For the molecule B1, the “percent decrease of iodinated IRP-1 binding” value (“percent decrease” for short) in test [1] was ~75%.

B2: iodinated IRP-1 (125I-labelled His-tagged IRP-1) (other)
chain: MEDGVYEPPDLTPEERMELENIRRRKQELLVEIQRLREELSEAMSEVEGLEANEGSKTLQRNRKMAMGRKKFNMDPKKGIQFLVENELLQNTPEEIARFLYKGEGLNKTAIGDYLGEREELNLAVLHAFVDLHEFTDLNLVQALRQFLWSFRLPGEAQKIDRMMEAFAQRYCLCNPGVFQSTDTCYVLSFAVIMLNTSLHNPNVRDKPGLERFVAMNRGINEGGDLPEELLRNLYDSIRNEPFKIPEDDGNDLTHTFFNPDREGWLLKLGGRVKTWKRRWFILTDNCLYYFEYTTDKEPRGIIPLENLSIREVDDPRKPNCFELYIPNNKGQLIKACKTEADGRVVEGNHMVYRISAPTQEEKDEWIKSIQAAVSVDPFYEMLAARKKRISVKKKQEQP
modifications: radiolabeled with 125I (Iodobead or lactoperoxidase/hydrogen peroxide method); positions not given
notes: also called radiolabeled IRP-1; not shown: His tag encoded by pET15b (non-kemptide-tagged)
For B2, the binding result in test [2] is on record as “no binding”.

B3: IRP-1 Sec7 domain (recombinant, soluble competitor) (other)
chain: KFNMDPKKGIQFLVENELLQNTPEEIARFLYKGEGLNKTAIGDYLGEREELNLAVLHAFVDLHEFTDLNLVQALRQFLWSFRLPGEAQKIDRMMEAFAQRYCLCNPGVFQSTDTCYVLSFAVIMLNTSLHNPNVRDKPGLERFVAMNRGINEGGDLPEELLRNLYDSIRNEPFKI
Regarding B3, the “percent decrease” value in test [1] was ~75%.

B4: His-tagged B2-1 (HisB2-1), expressed in E. coli (other, human, UniProt Q15438 1-398, looked up)
chain: MEEDDSYVPSDLTAEERQELENIRRRKQELLADIQRLKDEIAEVANEIENLGSTEERKNMQRNKQVAMGRKKFNMDPKKGIQFLIENDLLKNTCEDIAQFLYKGEGLNKTAIGDYLGERDEFNIQVLHAFVELHEFTDLNLVQALRQFLWSFRLPGEAQKIDRMMEAFAQRYCQCNNGVFQSTDTCYVLSFAIIMLNTSLHNPNVKDKPTVERFIAMNRGINDGGDLPEELLRNLYESIKNEPFKIPEDDGNDLTHTFFNPDREGWLLKLGGGRVKTWKRRWFILTDNCLYYFEYTTDKEPRGIIPLENLSIREVEDSKKPNCFELYIPDNKDQVIKACKTEADGRVVEGNHTVYRISAPTPEEKEEWIKCIKAAISRDPFYEMLAARKKKVSSTKRH
notes: mature; also called cytohesin-1; not shown: N-terminal histidine tag encoded by pET15b
Consider B4, for which the “percent decrease” value in test [1] was ~75%.
